Positions of bridges follow the written chain, without caps; N, C: chain ends. No end group written: not given here. PEG = not defined here
Experiments:
[1] = molecular target: EGFR on the surface of tumor cells (human) (UniProt P00533)
[2] = molecular target: EGFR on the surface of tumor cells (human) (UniProt P00533); assay: flow cytometry on A431 cells preincubated with 2 ug EGF, 2 uM bio-P190: avidin complex, 4° C.

Row | IC50 D4 [1] | IC50 D6 [1] | staining over background [2] | Binder
1 | 120 µg/mL | 35 µg/mL | – | DPCTWEVWGRECLQ (disulfide 3-12 (inferred); not fully specified (N-terminus); also: inserted into DOXIL liposomes (doxorubicin)) [P190-DOXIL]
2 | – | – | 20 fold | DPCTWEVWGRECLQ-{PEG-biotin} (disulfide 3-12 (inferred); reading uncertain) [Biotinylated-PEGylated P190]

From patent US8278415B2
